According to PMC12502629, “The NagY antiterminator in Enterococcus faecalis: a novel regulatory mechanism and its impact on cell metabolism” (Microbiology Spectrum, 2025):

T1: NagY antiterminator (Enterococcus faecalis, UniProt Q834W3 1-277)
T1 construct: NagY transcriptional antiterminator of Enterococcus faecalis, encoded by nagY (ef1515); source: E. coli M15 pRep4 pQE70-nagY, purified (HisTrap HP)
T1 sequence (looked up): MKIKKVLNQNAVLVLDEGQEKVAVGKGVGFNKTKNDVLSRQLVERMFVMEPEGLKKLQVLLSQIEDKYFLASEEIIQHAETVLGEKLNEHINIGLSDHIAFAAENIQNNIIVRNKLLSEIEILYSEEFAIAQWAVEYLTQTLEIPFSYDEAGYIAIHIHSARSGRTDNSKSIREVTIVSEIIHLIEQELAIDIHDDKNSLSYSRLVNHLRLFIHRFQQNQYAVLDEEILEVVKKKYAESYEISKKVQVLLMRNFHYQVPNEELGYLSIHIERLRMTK

B1: RNase III (fluorescence-labeled, RNase III*) (enzyme, Enterococcus faecalis, UniProt Q82ZG1 1-230, looked up)
chain: MDNQLTTELKERYGIVFHDVNLLEQAFTHSSYVNEHRYLKLSDNERLEFLGDAVLELIVSQYLYLKFPELPEGKLTKMRAAIVREDSLAKFAKECHFDNYILLGKGEEASGGRTRASLLCDLFEAFLGALYLDQKVGAAKKFIEDVIFPKIDAGAFSHEMDHKTQLQEVLQRKGDVSIEYRLIKEEGPAHDRTFFTEVYMNGELIGLGQGKSKKLAEQDAAERALKSIPQ
modifications: Cys-labeled with Red-Maleimide 2nd Generation dye (degree of labeling 0.1 fluorescent tags per protein unit)
notes: RNase III of Enterococcus faecalis, a 26.2 kDa protein encoded by the rnc gene (ef3097); also called ribonuclease RNase III; rnc gene product; source: E. coli M15 pRep4 pQE30-rnc, purified (HisTrap HP)

Tests used:
[1] = test system: RNase III (RNase III*);NagY (Enterococcus faecalis V19?;Enterococcus faecalis V19?); test: spectral shift (Monolith X); conditions: RNase III* pre-incubated with NagY (8.5e-6 M), then RNA titrated; 1 mM MgCl2; ES-T buffer: 10 mM Tris pH 8.0, 40 mM NaCl, 10 mM KCl, 1 mM MgCl2, 0.05% Tween-80; room temperature (5 min pre-incubation); RNase III* stock 5e-8 M …
[2] = target: T1, NagY antiterminator; test: other fluorescence titration; spectral shift (670 nm/650 nm) on Monolith X; RNase III* Cys-labeled at 50·10^-9 M, NagY serially diluted 5.2·10^-10 to 1.7·10^-5 M; ES-T buffer pH 8.0 (10 mM Tris, 40 mM NaCl, 10 mM KCl, 1 mM MgCl2, 0.05% Tween-80); independent triplicates; conditions: both partners purified

| Molecule | Kd [1] | Kd [2] |
| --- | --- | --- |
| 5' nagY RNA | 580 nM | – |
| B1 | – | 2500 nM |
